Source: the Human Domainome abundance scans (Beltran et al. 2025)
± gives the uncertainty stated by the source.

B1: Peroxisome proliferator-activated receptor delta, residues 71 to 145; numbered along this chain, Q03181 (parent)
chain: NMECRVCGDKASGFHYGVHACEGCKGFFRRTIRMKLEYEKCERSCKIQKKNRNKCQYCRFQKCLALGMSHNAIRF

Variants of: B1
Test: abundance fitness (aPCA) (normalised: wild type 0, dead -1); higher = more abundant; growth selection in yeast, the domain comes from the species named
Conditions: Homo sapiens

Row | Variant | abundance fitness
1 | NMECRVCGDKASGFHYGVHACEGCKGFFRRTIRMKLEYEKCERSCKIQKKNRNKCQYCRFQKCLALGMSHNAIFF [R74F] | 0.049 ± 0.18
2 | NMECRVCGDKASGFHYGVHACEGCKGFFRRTIRMKLEYEKCERSCKIQKKNRNKCQYCRFQKCLALGMSHNAIKF [R74K] | 0.067 ± 0.075
3 | NMECRVCGDKASGFHYGVHACEGCKGFFRRTIRMKLEYEKCERSCKIQKKNRNKCQYCRFQKCLALGMSHNHIRF [A72H] | 0.047 ± 0.069
4 | NMECRVCGDKASGFHYGVHACEGCKGFFRRTIRMKLEYEKCERSCKIQKKNRNKCQYCRFQKCLALGMSHNRIRF [A72R] | -0.257 ± 0.043
5 | NMECRVCGDKASGFHYGVHACEGCKGFFRRTIRMKLEYEKCERSCKIQKKNRNKCQYCRFQKCLALGMSHNIIRF [A72I] | -0.297 ± 0.1
6 | NMECRVCGDKASGFHYGVHACEGCKGFFRRTIRMKLEYEKCERSCKIQKKNRNKCQYCRFQKCLALGMSHNCIRF [A72C] | -0.126 ± 0.063
7 | NMECRVCGDKASGFHYGVHACEGCKGFFRRTIRMKLEYEKCERSCKIQKKNRNKCQYCRFQKCLALGMSHNLIRF [A72L] | -0.144 ± 0.041
8 | NMECRVCGDKASGFHYGVHACEGCKGFFRRTIRMKLEYEKCERSCKIQKKNRNKCQYCRFQKCLALGMSHNKIRF [A72K] | -0.175 ± 0.067
9 | NMECRVCGDKASGFHYGVHACEGCKGFFRRTIRMKLEYEKCERSCKIQKKNRNKCQYCRFQKCLALGMSHNMIRF [A72M] | 0.019 ± 0.059
10 | NMECRVCGDKASGFHYGVHACEGCKGFFRRTIRMKLEYEKCERSCKIQKKNRNKCQYCRFQKCLALGMSHNNIRF [A72N] | -0.092 ± 0.084
11 | NMECRVCGDKASGFHYGVHACEGCKGFFRRTIRMKLEYEKCERSCKIQKKNRNKCQYCRFQKCLALGMSHNFIRF [A72F] | -0.27 ± 0.1
12 | NMECRVCGDKASGFHYGVHACEGCKGFFRRTIRMKLEYEKCERSCKIQKKNRNKCQYCRFQKCLALGMSHNWIRF [A72W] | -0.353 ± 0.061
13 | NMECRVCGDKASGFHYGVHACEGCKGFFRRTIRMKLEYEKCERSCKIQKKNRNKCQYCRFQKCLALGMSHNGIRF [A72G] | 0.059 ± 0.03
14 | NMECRVCGDKASGFHYGVHACEGCKGFFRRTIRMKLEYEKCERSCKIQKKNRNKCQYCRFQKCLALGMSHNSIRF [A72S] | 0.052 ± 0.04
15 | NMECRVCGDKASGFHYGVHACEGCKGFFRRTIRMKLEYEKCERSCKIQKKNRNKCQYCRFQKCLALGMSHNTIRF [A72T] | -0.248 ± 0.065
16 | NMECRVCGDKASGFHYGVHACEGCKGFFRRTIRMKLEYEKCERSCKIQKKNRNKCQYCRFQKCLALGMSHNQIRF [A72Q] | 0.008 ± 0.058
17 | NMECRVCGDKASGFHYGVHACEGCKGFFRRTIRMKLEYEKCERSCKIQKKNRNKCQYCRFQKCLALGMSHNDIRF [A72D] | 0.132 ± 0.048
18 | NMECRVCGDKASGFHYGVHACEGCKGFFRRTIRMKLEYEKCERSCKIQKKNRNKCQYCRFQKCLALGMSHNEIRF [A72E] | 0.122 ± 0.042
19 | NMECRVCGDKASGFHYGVHACEGCKGFFRRTIRMKLEYEKCERSCKIQKKNRNKCQYCRFQKCLALGMSHNYIRF [A72Y] | -0.156 ± 0.09

Row | Variant | abundance fitness
20 | NMECRVCGDKASGFHYGVHACEGCKGFFRRTIRMKLEYEKCERSCKIQKKNRNKCQYCRFQKCLALGMSHNAIRW [F75W] | 0.176 ± 0.12
21 | NMECRVCGDKASGFHYGVHACEGCKGFFRRTIRMKLEYEKCERSCKIQKKNRNKCQYCRFQKCLALGMSHNAIRL [F75L] | 0.128 ± 0.05
22 | NMECRVCGDKASGFHYGVHACEGCKGFFRRTIRMKLEYEKCERSCKIQKKNRNKCQYCRFQKCLALGMSHNAIRY [F75Y] | 0.026 ± 0.072
23 | NMECRVCGDKASGFHYGVHACEGCKGFFRRTIRMKLEYEKCERSCKIQKKNRNKCQYCRFQKCLALGMSHNAIRP [F75P] | 0.152 ± 0.057
24 | NMECRVCGDKASGFHYGVHACEGCKGFFRRTIRMKLEYEKCERSCKIQKKNRNKCQYCRFQKCLALGMSHNAIRM [F75M] | -0.192 ± 0.12
25 | NMECRVCGDKASGFHYGVHACEGCKGFFRRTIRMKLEYEKCERSCKIQKKNRNKCQYCRFQKCLALGMSHNAIRA [F75A] | 0.15 ± 0.08
26 | NMECRVCGDKASGFHYGVHACEGCKGFFRRTIRMKLEYEKCERSCKIQKKNRNKCQYCRFQKCLALGMSHNAIRK [F75K] | 0.238 ± 0.11
27 | NMECRVCGDKASGFHYGVHACEGCKGFFRRTIRMKLEYEKCERSCKIQKKNRNKCQYCRFQKCLALGMSHNAIRC [F75C] | 0.193 ± 0.064
28 | NMECRVCGDKASGFHYGVHACEGCKGFFRRTIRMKLEYEKCERSCKIQKKNRNKCQYCRFQKCLALGMSHNAIRI [F75I] | -0.023 ± 0.09
29 | NMECRVCGDKASGFHYGVHACEGCKGFFRRTIRMKLEYEKCERSCKIQKKNRNKCQYCRFQKCLALGMSHNAIRD [F75D] | 0.285 ± 0.09
30 | NMECRVCGDKASGFHYGVHACEGCKGFFRRTIRMKLEYEKCERSCKIQKKNRNKCQYCRFQKCLALGMSHNAIRR [F75R] | 0.066 ± 0.054
31 | NMECRVCGDKASGFHYGVHACEGCKGFFRRTIRMKLEYEKCERSCKIQKKNRNKCQYCRFQKCLALGMSHNAIRT [F75T] | 0.171 ± 0.069
32 | NMECRVCGDKASGFHYGVHACEGCKGFFRRTIRMKLEYEKCERSCKIQKKNRNKCQYCRFQKCLALGMSHNAIRQ [F75Q] | 0.301 ± 0.093
33 | NMECRVCGDKASGFHYGVHACEGCKGFFRRTIRMKLEYEKCERSCKIQKKNRNKCQYCRFQKCLALGMSHNAIRV [F75V] | 0.015 ± 0.062
34 | NMECRVCGDKASGFHYGVHACEGCKGFFRRTIRMKLEYEKCERSCKIQKKNRNKCQYCRFQKCLALGMSHNAIRG [F75G] | 0.218 ± 0.047
35 | NMECRVCGDKASGFHYGVHACEGCKGFFRRTIRMKLEYEKCERSCKIQKKNRNKCQYCRFQKCLALGMSHNAIRS [F75S] | 0.216 ± 0.049
36 | NMECRVCGDKASGFHYGVHACEGCKGFFRRTIRMKLEYEKCERSCKIQKKNRNKCQYCRFQKCLALGMSHNAIRN [F75N] | -0.021 ± 0.094
37 | NMECRVCGDKASGFHYGVHACEGCKGFFRRTIRMKLEYEKCERSCKIQKKNRNKCQYCRFQKCLALGMSHNAIRE [F75E] | 0.088 ± 0.09
